Read-outs that look alike come from different tables or passages of the source.
T1: OAP1 (recombinant, 6xHis-tag removed) (Arabidopsis thaliana, UniProt F4K9I8 1-303)
T1 construct: OPENER ASSOCIATED PROTEIN 1 (OAP1), Arabidopsis thaliana, AT5G07950; printed molecular weight 34 kDa; not shown: 6xHis, N-terminal, cleaved
T1 sequence (looked up): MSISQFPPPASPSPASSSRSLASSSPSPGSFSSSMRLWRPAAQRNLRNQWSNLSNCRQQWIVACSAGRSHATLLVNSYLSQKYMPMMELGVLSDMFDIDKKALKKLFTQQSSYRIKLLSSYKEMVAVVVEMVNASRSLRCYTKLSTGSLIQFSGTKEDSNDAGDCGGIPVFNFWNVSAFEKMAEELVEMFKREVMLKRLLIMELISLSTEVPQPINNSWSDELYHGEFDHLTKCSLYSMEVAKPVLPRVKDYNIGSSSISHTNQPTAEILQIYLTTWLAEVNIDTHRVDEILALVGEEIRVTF


Experiments:
[1] = molecular target: 6xHis-OAP1 (Arabidopsis thaliana); experiment: co-purification of co-expressed proteins (Ni-NTA); 6xHis-OAP1, OAP2 and OPNR expressed together in E. coli BL21(DE3), purified on Ni-NTA resin by the His tag of OAP1; molar ratio from the gel
[2] = molecular target: T1, OAP1 (recombinant, 6xHis-tag removed); experiment: SEC; OPNR-OAP1-OAP2 complex after removal of the 6xHis-tag; Superdex200 16/600

Row | stoichiometry N [1] | stoichiometry N [2] | stoichiometry N ([2]; both partners purified) | Molecule
1 | 1 | 1 | – | OAP2 (recombinant) (natural protein)
2 | 1 | – | 1 | OPNR (recombinant) (natural protein, Arabidopsis thaliana, UniProt Q6NPG7 1-195, looked up, OPENER (OPNR), Arabidopsis thaliana, AT5G43822; printed molecular weight 23 kDa; also called OPENER; source: E. coli BL21(DE3), co-expressed with 6xHis-OAP1 and OAP2 from pACYCDuet-1, co-purified (Ni-NTA, Superdex200)) MEAVIRKWQQKFRKGKEEMEKWEALQVRWVSLFRNASSIIQRLQEMQNHGSYGALRCLKGIEDAVVQQQMGQLESLLRSMKNVMEEFWGCVLTFEKLHRDGLQLREIESSKRRVEERIGVKPCITDCLEGLSILYDMHQSEYHLKSSILSVLSCLILKPSPGDLNALQYLVVDQPNIPKDEVQHIFDVIFAEEIK
